B1: Transcription factor NRM1 (Saccharomyces cerevisiae), P53718 (parent)
chain: MSIMKQRLPLGEFSSSKINKLAIANIADASEPRNHGENNVGTVCLPSIKSLMVSPEVYENTKSLPVPLMRSSGGGMACASKSSCQDGISTKTTSRDYSELSKKLQIRLQFAYYKYKTKQTDKNFTDLKSKHSITRPSKVATHSKSEPLTRRRKLVLSQGHYKTPARSKIKTPSSICSHDNTSSFTSFRGVSESSSTTADMNVADTTTPIRNNINTKHSNSHNRTLYQRQETPTSIKAAKSLIHLFTSNQ

Variants of: B1
Details: with rad53_yeast RAD53, P22216
rad53_yeast RAD53, P22216, sequence (P22216 whole entry): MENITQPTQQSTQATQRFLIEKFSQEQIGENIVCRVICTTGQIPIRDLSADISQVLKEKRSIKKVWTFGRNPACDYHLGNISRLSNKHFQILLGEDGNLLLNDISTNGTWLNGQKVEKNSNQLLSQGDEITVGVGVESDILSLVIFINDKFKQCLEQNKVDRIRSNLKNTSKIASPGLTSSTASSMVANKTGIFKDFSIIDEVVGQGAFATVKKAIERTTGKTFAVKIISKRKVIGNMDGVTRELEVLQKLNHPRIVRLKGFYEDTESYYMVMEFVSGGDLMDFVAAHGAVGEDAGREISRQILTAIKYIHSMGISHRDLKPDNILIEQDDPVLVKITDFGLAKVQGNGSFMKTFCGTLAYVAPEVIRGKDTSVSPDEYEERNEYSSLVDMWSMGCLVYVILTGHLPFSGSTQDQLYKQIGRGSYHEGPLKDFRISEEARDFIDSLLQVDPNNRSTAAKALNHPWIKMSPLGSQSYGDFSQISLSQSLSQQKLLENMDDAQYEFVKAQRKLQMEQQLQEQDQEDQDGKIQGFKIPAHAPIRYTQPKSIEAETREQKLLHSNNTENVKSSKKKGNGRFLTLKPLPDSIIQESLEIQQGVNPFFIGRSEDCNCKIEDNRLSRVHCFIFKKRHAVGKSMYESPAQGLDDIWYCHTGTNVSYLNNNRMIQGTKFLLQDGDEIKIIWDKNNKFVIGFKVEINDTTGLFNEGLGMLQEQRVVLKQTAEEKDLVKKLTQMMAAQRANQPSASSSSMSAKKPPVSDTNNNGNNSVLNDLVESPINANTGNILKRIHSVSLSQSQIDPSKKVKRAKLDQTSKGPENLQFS

| Variant | effect of a mutation on the interaction |
| --- | --- |
| MSIMKQRLPLGEFSSSKINKLAIANIADASEPRNHGENNVGAVCLPAIKSLMVSPEVYENTKSLPVPLMRSSGGGMACASKSSCQDGISTKTTSRDYSELSKKLQIRLQFAYYKYKTKQTDKNFTDLKSKHSITRPSKVATHSKAEPLTRRRKLVLSQGHYKTPARSKIKTPSSICSHDNTSSFTSFRGVSESSSTTADMNVADTTTPIRNNINTKHSNSHNRTLYQRQETPTSIKAAKALIHLFTSNQ [T42A;S47A;S145A;S240A] | decreasing interaction |
